Test results published in patent US20240409638A1 (AVACTA LIFE SCIENCES, published 2024).
Blank lines part the entries; values can stand above or below the binder they belong to.

Assays:
[1] = target: T1, human serum albumin (HSA) (human, UniProt P02768 25-609); test: SPR, Biacore, HSA amine-coupled on CM5; mammalian-produced format
T1 construct: The assays used bought HSA (Sigma #A37812 in the SPR work); also called HuSA
Procedure: (§1) For the HSA binding kinetic analysis, HSA (Sigma #A37812) was immobilized on a CM5 chip surface using amine coupling in 10 mM sodium acetate (pH 5.0) (Cytvia). […] The chip surface was regenerated with 3 mM NaOH for 20 seconds at a flow rate of 20 μl/min. The kinetic data was blank subtracted and fit to a 1:1 Langmuir binding model (BIAcore evaluation software; Cytiva).

[2] = target: T2, murine serum albumin (MSA) (murine, UniProt P07724 25-608); test: SPR, Biacore, MSA amine-coupled on CM5; mammalian-produced format
T2 construct: Bought reagent

[3] = target: T3, human PD-L1-Fc (R&D Systems) (human, UniProt Q9NZQ7 19-239); test: human PD-L1-Fc binding ELISA: huPD-L1-Fc coated, anti-cystatin A detection
T3 construct: Bought reagent; also called huPD-L1-Fc; huPD-L1; not shown: Fc part of the bought fusion

[4] = target: T2, murine serum albumin (MSA); test: SPR (Biacore): immobilized ligand MSA (Sigma # A3559), AFFIMER as analyte, pH 7.0 by the legend
[5] = target: T1, human serum albumin (HSA); test: HSA binding ELISA: HSA coated, anti-cystatin A detection
[6] = target: T1, human serum albumin (HSA); test: SPR (Biacore): immobilized ligand HSA (Sigma # A3782), AFFIMER as analyte, pH 7.0 by the legend
Procedure: as §1

[7] = target: T3, human PD-L1-Fc (R&D Systems); test: SPR (Biacore 8K): human PD-L1-Fc amine-coupled on a CM5 chip, AFFIMER as analyte
[8] = target: T4, PD-L1 on cells (NCI-H441 cells; aAPC PD-L1/CHO-K1 cells, Promega) (human, UniProt Q9NZQ7 19-290); test: cell-based or functional assay
[9] = target: T3, human PD-L1-Fc (R&D Systems); test: SPR (Biacore) kinetics: human PD-L1-Fc immobilised on a CM5 chip, AFFIMER as analyte
[10] = target: T1, human serum albumin (HSA); test: SPR (Biacore) kinetics: HSA immobilised on a CM5 chip, AFFIMER as analyte, pH 7.4
Procedure: as §1
(§2) Protein was produced from Escherichia coli and characterized as described in Example 1. […] Kinetic analysis was carried out as described in Example 2.

[11] = target: T1, human serum albumin (HSA); test: SPR, Biacore, HSA on CM5, pH 7.4; ILF XT format
Procedure: as §1, §2

[12] = target: T3, human PD-L1-Fc (R&D Systems); test: SPR (Biacore) kinetics: human PD-L1-Fc immobilised on a CM5 chip, AFFIMER as analyte (column KD (pM), the same fit as the KD (M) column)
[13] = target: T1, human serum albumin (HSA); test: HSA binding ELISA: HSA coated, bound AFFIMER detected with biotinylated anti-cystatin A antibody and streptavidin-HRP
Procedure: Plates were washed and AFFIMER® polypeptides were detected using streptavidin-HRP for 30 min. After the last washing step, the TMB substrate was added for the development of the experiment and plates were read at 450 nm. The EC₅₀ was then calculated using the interpolated non-linear four-parameters standard curve.

[14] = target: T4, PD-L1 on cells (NCI-H441 cells; aAPC …); test: cell-based or functional assay; remark: listed apart in the source
[15] = target: T3, human PD-L1-Fc (R&D Systems); test: PD-L1/PD-1 competition ELISA (binding inhibition %): human PD-1-Fc coated, AFFIMER preincubated with huPD-L1-Fc at its EC80, bound PD-L1 detected; blocked ligand: human PD-1-Fc. The table column is headed 'EC50 (nM)'; the text calls the values IC50
Procedure: Plates were washed two times with washing buffer (PBS, Tween 20 0.1%) with a plate washer and saturated with Casein 5% (Sigma) in PBS for 90 minutes at room temperature (25±1° C.). […] Plates were washed 3 times as described previously. […] Plates were washed 3 times as described previously and Streptavidin-HRP was added, and the plates were incubated for 30 minutes at room temperature (25±1° C.). Plates were washed a last time and the substrate (TMB; Pierce Thermo-Scientific) was added to the plate. After 10 minutes, the reaction was stopped using an acidic solution and the plates were read at absorbance 450-630 nm. The IC₅₀ was then calculated using the interpolated non-linear four-parameters standard curve.

[16] = target: T3, human PD-L1-Fc (R&D Systems); test: SPR (Biacore 8K): human PD-L1-Fc amine-coupled on a CM5 chip, AFFIMER as analyte, 1:1 Langmuir fit
[17] = target: T3, human PD-L1-Fc (R&D Systems); test: huPD-L1-Fc binding ELISA
[18] = target: T1, human serum albumin (HSA); test: SPR, Biacore, HSA on CM5, pH 7.4; HSA-18 monomer
Procedure: as §1, §2

T1 sequence (P02768 25-609): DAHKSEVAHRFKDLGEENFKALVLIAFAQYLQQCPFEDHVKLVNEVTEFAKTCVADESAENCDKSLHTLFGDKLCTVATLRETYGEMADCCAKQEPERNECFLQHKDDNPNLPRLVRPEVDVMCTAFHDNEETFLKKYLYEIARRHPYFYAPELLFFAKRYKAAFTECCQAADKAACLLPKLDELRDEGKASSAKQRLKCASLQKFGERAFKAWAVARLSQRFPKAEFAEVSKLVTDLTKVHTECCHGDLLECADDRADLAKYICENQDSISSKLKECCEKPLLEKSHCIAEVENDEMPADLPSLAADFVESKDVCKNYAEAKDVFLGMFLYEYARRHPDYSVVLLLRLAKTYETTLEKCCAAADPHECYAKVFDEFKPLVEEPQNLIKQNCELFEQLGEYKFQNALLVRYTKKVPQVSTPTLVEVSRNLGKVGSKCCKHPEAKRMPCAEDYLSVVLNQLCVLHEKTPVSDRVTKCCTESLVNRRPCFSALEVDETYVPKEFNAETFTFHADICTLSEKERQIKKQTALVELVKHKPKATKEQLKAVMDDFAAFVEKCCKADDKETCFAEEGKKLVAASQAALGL
T3 sequence (Q9NZQ7 19-239 limits assumed): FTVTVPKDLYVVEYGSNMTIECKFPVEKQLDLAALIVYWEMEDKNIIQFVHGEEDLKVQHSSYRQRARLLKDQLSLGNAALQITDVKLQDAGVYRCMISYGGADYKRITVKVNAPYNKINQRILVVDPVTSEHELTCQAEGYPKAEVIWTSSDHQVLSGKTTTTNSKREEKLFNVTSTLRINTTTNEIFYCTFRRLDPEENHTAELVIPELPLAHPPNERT
T4 sequence (Q9NZQ7 19-290): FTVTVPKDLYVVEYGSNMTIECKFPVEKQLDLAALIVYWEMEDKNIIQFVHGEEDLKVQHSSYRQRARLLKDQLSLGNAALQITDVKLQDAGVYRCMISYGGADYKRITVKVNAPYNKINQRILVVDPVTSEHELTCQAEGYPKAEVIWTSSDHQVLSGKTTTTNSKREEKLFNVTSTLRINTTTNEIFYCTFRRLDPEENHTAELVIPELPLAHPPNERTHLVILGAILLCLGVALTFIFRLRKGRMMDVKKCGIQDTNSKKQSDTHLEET

Kd [1]: 15.5 nM | Kd [2]: 413 nM | EC50 [3]: 0.02 nM | koff [4]: 0.0741 s⁻¹ | kon [4]: 179000 M⁻¹ s⁻¹ | EC50 [5]: 2.78 nM | koff [6]: 0.00641 s⁻¹ | kon [6]: 412000 M⁻¹ s⁻¹ | Kd [7]: 0.0864 nM | koff [7]: 8.41e-05 s⁻¹ | kon [7]: 974000 M⁻¹ s⁻¹ | IC50 of PD-1/PD-L1 blockade (% of inhibition, Promega NFAT-luciferase reporter cells) [8]: 57.9 nM
B1: Clone 80 XT38 (mammalian-produced anti-PD-L1 AFFIMER® ILF dimer XT) (designed binder)
chain: MIPGGLSEAKPATPEIQEIVDKVKPQLEEKTGETYGKLEAVQYKTQVVRRKHFPQWPGTNYYIKVRAGDNKYMHLKVFKSLDLQPREVFQEDLVLTGYQVDKNKDDELTGFAEAAAKEAAAKEAAAKEAAAKEAAAKEAAAKMIPGGLSEAKPATPEIQEIVDKVKPQLEEKTGETYGKLEAVQYKTQVVRRKHFPQWPGTNYYIKVRAGDNKYMHLKVFKSLDLQPREVFQEDLVLTGYQVDKNKDDELTGFAEAAAKEAAAKEAAAKEAAAKEAAAKEAAAKMIPRGLSEAKPATPEIQEIVDKVKPQLEEKTNETYGKLEAVQYKTQVLANFFQRRWPGSTNYYIKVRAGDNKYMHLKVFNGPWKFRNTDRGADRVLTGYQVDKNKDDELTGF
notes: Same trimeric ILF format as Clone 80 XT35, expressed in HEK (Expi293F) cells

Kd [9]: 0.109 nM | koff [9]: 0.00015 s⁻¹ | kon [9]: 1.37e+06 M⁻¹ s⁻¹ | Kd [10]: 704 nM | koff [10]: 0.00828 s⁻¹ | kon [10]: 11800 M⁻¹ s⁻¹ | Kd [11]: 7.04 nM | Kd [12]: 0.11 nM
B2: Clone 80 XT62 (designed binder)
chain: MIPGGLSEAKPATPEIQEIVDKVKPQLEEKTGETYGKLEAVQYKTQVVRRKHFPQWPGTNYYIKVRAGDNKYMHLKVFKSLDLQPREVFQEDLVLTGYQVDKNKDDELTGFAEAAAKEAAAKEAAAKEAAAKEAAAKEAAAKMIPGGLSEAKPATPEIQEIVDKVKPQLEEKTGETYGKLEAVQYKTQVVRRKHFPQWPGTNYYIKVRAGDNKYMHLKVFKSLDLQPREVFQEDLVLTGYQVDKNKDDELTGFAEAAAKEAAAKEAAAKEAAAKEAAAKEAAAKMIPRGLSEAKPATPEIQEIVDKVKPQLEEKTNETYGKLEAVQYKTQVLADWWQAKWPHSTNYYIKVRAGDNKYMHLKVFNGPYKVHQSSGGADRVLTGYQVDKNKDDELTGF
notes: Clone 80 dimer with HSA-18 at the C-terminus; Made in E. coli; No tag is stated for this construct

binding result [13]: no binding | half-maximal concentration of PD-1/PD-L1 blockade (% of inhibition, NFAT-luciferase reporter cells; IC50) [14]: 27.9 nM | EC50 [3]: 0.21 nM | IC50 [15]: 1.63 nM | Kd [16]: 0.449 nM | EC50 [17]: 0.2 nM
B3: Clone 80 (monomeric anti-PD-L1 AFFIMER® polypeptide) (designed binder)
chain: MIPGGLSEAKPATPEIQEIVDKVKPQLEEKTGETYGKLEAVQYKTQVVRRKHFPQWPGTNYYIKVRAGDNKYMHLKVFKSLDLQPREVFQEDLVLTGYQVDKNKDDELTGF
notes: Engineered Stefin A variant; also called anti-PD-L1 type I AFFIMER® polypeptide

Kd [10]: 109 nM | koff [10]: 0.0078 s⁻¹ | kon [10]: 71400 M⁻¹ s⁻¹ | Kd [18]: 1.09 nM
B4: HSA-18 (anti-serum albumin AFFIMER® polypeptide, XT monomer) (designed binder)
chain: MIPRGLSEAKPATPEIQEIVDKVKPQLEEKTNETYGKLEAVQYKTQVLADWWQAKWPHSTNYYIKVRAGDNKYMHLKVFNGPYKVHQSSGGADRVLTGYQVDKNKDDELTGF
notes: also called HSA-18 monomer
